Test results taken from publication PMC9945442.

Molecular target: Argonaute 2 (AGO2) (human (Homo sapiens), UniProt Q9UKV8 1-859)
Test: northern blot of purified loaded AGO2

Sequence of Argonaute 2 (AGO2) (Q9UKV8 whole entry): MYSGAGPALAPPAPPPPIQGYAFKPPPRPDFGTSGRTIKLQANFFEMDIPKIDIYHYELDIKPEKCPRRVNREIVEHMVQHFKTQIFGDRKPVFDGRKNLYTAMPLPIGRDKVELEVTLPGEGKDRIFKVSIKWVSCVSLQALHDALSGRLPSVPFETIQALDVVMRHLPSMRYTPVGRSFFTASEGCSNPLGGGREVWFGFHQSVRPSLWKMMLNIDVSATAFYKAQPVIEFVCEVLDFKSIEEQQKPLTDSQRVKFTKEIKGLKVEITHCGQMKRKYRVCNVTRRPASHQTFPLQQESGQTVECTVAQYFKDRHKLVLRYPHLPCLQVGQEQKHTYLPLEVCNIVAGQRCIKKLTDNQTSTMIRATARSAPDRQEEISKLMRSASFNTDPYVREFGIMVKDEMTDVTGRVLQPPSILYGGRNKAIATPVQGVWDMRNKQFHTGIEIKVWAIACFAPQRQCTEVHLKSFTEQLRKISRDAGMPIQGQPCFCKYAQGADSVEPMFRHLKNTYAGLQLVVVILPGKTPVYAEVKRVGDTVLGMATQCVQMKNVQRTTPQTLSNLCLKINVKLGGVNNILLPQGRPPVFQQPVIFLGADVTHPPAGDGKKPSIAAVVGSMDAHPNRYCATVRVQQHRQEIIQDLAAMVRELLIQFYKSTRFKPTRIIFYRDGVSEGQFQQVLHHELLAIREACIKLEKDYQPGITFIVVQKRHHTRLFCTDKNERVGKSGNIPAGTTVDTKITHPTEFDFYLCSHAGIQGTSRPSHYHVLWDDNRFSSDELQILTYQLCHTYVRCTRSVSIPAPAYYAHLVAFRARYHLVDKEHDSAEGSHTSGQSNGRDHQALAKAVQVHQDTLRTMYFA

B1: miR-34a (ssRNA)
RNA: UGGCAGUGUCUUAGCUGGUUGU
B1: binds.
